Source: patent publication US20080058263A1 (published 2008)

Experiments:
Experiment in all cases: receptor-Fc IP
VEGFR-2-Fc = biological target: T1, VEGFR-2-Fc (UniProt P35968 20-322)
T1 construct: domain: first 3 Ig domains; conditioned supernatant of 293T cells; also called VEGFR-2-Fc fusion protein; not shown: Fc fragment of the pIg vector
Method in brief: (§1)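 Binding of ligand from sample supernatant measured by pentahistidine-antibody immunoprecipitation. IP mix: PBS with 1.5% BSA, 0.06% Tween 20, 3 μg/ml heparin and 400 ng/ml fusion protein, added 1:2 to sample supernatant.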

VEGFR-1-Fc = biological target: T2, VEGFR-1-Fc (UniProt P17948 27-338)
T2 construct: domain: first three Ig domains; expressed in Drosophila S2 cells, purified on Protein A sepharose; also called VEGFR-1-Fc fusion protein; not shown: Fc fragment from the Signal-pIgPlus vector
T2 sequence (P17948 27-338): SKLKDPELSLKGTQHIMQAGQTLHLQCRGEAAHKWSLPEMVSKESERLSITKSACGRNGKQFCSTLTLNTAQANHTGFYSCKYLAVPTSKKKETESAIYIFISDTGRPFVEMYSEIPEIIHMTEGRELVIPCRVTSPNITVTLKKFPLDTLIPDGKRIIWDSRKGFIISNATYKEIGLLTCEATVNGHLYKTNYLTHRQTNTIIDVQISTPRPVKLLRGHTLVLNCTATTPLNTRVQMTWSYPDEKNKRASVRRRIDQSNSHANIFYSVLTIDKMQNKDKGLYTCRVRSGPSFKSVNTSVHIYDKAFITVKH
Method in brief: as §1

VEGFR-3-Fc = biological target: T3, VEGFR-3-Fc (UniProt P35916 25-328)
T3 construct: domain: first three Ig domains; conditioned supernatant of 293T cells; also called VEGFR-3-Fc fusion protein; not shown: Fc fragment of the pIg vector
T3 sequence (looked up): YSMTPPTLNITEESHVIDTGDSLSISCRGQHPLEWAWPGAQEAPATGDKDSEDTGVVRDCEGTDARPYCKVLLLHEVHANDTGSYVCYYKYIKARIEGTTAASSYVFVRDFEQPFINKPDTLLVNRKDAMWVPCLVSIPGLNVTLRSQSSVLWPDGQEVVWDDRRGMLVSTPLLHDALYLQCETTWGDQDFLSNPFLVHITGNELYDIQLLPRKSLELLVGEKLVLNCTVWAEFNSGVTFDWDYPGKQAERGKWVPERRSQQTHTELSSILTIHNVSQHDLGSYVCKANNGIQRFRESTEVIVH
Method in brief: as §1

T1 sequence (P35968 20-322): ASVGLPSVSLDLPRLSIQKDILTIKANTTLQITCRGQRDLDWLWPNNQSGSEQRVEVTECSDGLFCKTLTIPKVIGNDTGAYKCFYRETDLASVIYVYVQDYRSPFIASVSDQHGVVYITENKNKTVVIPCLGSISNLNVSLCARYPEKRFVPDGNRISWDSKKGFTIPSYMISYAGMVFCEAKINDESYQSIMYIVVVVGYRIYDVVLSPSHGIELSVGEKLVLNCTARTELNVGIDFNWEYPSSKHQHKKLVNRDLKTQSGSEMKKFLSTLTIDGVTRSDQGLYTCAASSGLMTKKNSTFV

Binder	binding result (VEGFR-2-Fc)	binding result (VEGFR-1-Fc)	binding result (VEGFR-3-Fc)
62-14 (ligand) GQNHHEVVKFMDVYQRSYCHPREVCIDVGKEFGVATNTFFKPPCVSVYRCGGCCNDEGLECMNTSTSYLSKTLFEITVPLSQGPKPVTISFANHTSCRCMSKLD	no binding	no binding	no binding
42-16 (ligand) AHYNTEILKFMDVYQRSYCHPREVCIDVGKEFGVATNTFFKPPCVSVYRCGGCCNSEGLQCMNTSTSYLSKTLFEITVPLSQGPKPVTISFANHTSCRCMSKLD	no binding	no binding	no binding
44-14 (ligand) AHYNTEILKFMDVYQRSYCHPREVCIDVGKEFGVATNTFFKPSCVPLMRCGGCCNDEGLECMNTSTSYLSKTLFEITVPLSQGPKPVTISFANHTSCRCMSKLD	no binding	no binding	no binding
42-14 (ligand) AHYNTEILKFMDVYQRSYCHPREVCIDVGKEFGVATNTFFKPPCVSVYRCGGCCNDEGLECMNTSTSYLSKTLFEITVPLSQGPKPVTISFANHTSCRCMSKLD	no binding	no binding	no binding
62-10 (ligand) GQNHHEVVKFMDVYQRSYCHPREVCIDVGKEFGVATNTFFKPPCVSVYRCGGCCNDEGLECMNTSTSYLSKTLFEITVPLSQGPKPVTISFLQHNKCECRPKKD	binds	no binding	no binding
63-8 (ligand) GQNHHEVVKFMDVYQRSYCHPREVCIDVGKEYPDEIEYIFKPPCVSVYRCGGCCNSEGLQCMNTSTSYLSKTLFEIKPHQGQHIGEMSFANHTSCRCMSKLD	no binding	no binding	no binding
13-6 (ligand) GQNHHEVVKFMDVYQRSYCHPIETLVDIFQEYPDEIEYIFKPPCVSVYRCGGCCNDEGLECMNTSTSYLSKTLFEIKPHQGQHIGEMSFANHTSCRCMSKLD	no binding	no binding	no binding
61-6 (ligand) GQNHHEVVKFMDVYQRSYCHPREVCIDVGKEYPDEIEYIFKPSCVPLMRCGGCCNDEGLECMNTSTSYLSKTLFEIKPHQGQHIGEMSFANHTSCRCMSKLD	no binding	no binding	no binding
62-8 (ligand) GQNHHEVVKFMDVYQRSYCHPREVCIDVGKEFGVATNTFFKPPCVSVYRCGGCCNSEGLQCMNTSTSYLSKTLFEIKPHQGQHIGEMSFANHTSCRCMSKLD	binds	no binding	no binding
61-4 (ligand) GQNHHEVVKFMDVYQRSYCHPREVCIDVGKEYPDEIEYIFKPSCVPLMRCGGCCNSEGLQCMNTSTSYLSKTLFEIKPHQGQHIGEMSFLQHNKCECRPKKD	no binding	no binding	no binding
13-8 (ligand) GQNHHEVVKFMDVYQRSYCHPIETLVDIFQEYPDEIEYIFKPPCVSVYRCGGCCNSEGLQCMNTSTSYLSKTLFEIKPHQGQHIGEMSFANHTSCRCMSKLD	no binding	no binding	no binding
43-8 (ligand) AHYNTEILKFMDVYQRSYCHPREVCIDVGKEYPDEIEYIFKPPCVSVYRCGGCCNSEGLQCMNTSTSYLSKTLFEIKPHQGQHIGEMSFANHTSCRCMSKLD	no binding	no binding	no binding
43-6 (ligand) AHYNTEILKFMDVYQRSYCHPREVCIDVGKEYPDEIEYIFKPPCVSVYRCGGCCNDEGLECMNTSTSYLSKTLFEIKPHQGQHIGEMSFANHTSCRCMSKLD	no binding	no binding	no binding
62-6 (ligand) GQNHHEVVKFMDVYQRSYCHPREVCIDVGKEFGVATNTFFKPPCVSVYRCGGCCNDEGLECMNTSTSYLSKTLFEIKPHQGQHIGEMSFANHTSCRCMSKLD	no binding	no binding	no binding
64-8 (ligand) GQNHHEVVKFMDVYQRSYCHPREVCIDVGKEFGVATNTFFKPSCVPLMRCGGCCNSEGLQCMNTSTSYLSKTLFEIKPHQGQHIGEMSFANHTSCRCMSKLD	no binding	no binding	no binding
63-6 (ligand) GQNHHEVVKFMDVYQRSYCHPREVCIDVGKEYPDEIEYIFKPPCVSVYRCGGCCNDEGLECMNTSTSYLSKTLFEIKPHQGQHIGEMSFANHTSCRCMSKLD	binds	no binding	no binding
61-8 (ligand) GQNHHEVVKFMDVYQRSYCHPREVCIDVGKEYPDEIEYIFKPSCVPLMRCGGCCNSEGLQCMNTSTSYLSKTLFEIKPHQGQHIGEMSFANHTSCRCMSKLD	no binding	no binding	no binding
62-1 (ligand) GQNHHEVVKFMDVYQRSYCHPREVCIDVGKEFGVATNTFFKPPCVSVYRCGGCCNDEGLECVPTEESNITMQIMRIKPHQGQHIGEMSFLQHNKCECRPKKD	no binding	binds	no binding
53-7 (ligand) AHYNTEILKSIDNEWRKTQCMPIETLVDIFQEYPDEIEYIFKPPCVSVYRCGGCCNSEGLQCVPTEESNITMQIMRIKPHQGQHIGEMSFANHTSCRCMSKLD	binds	no binding	no binding
53-3 (ligand, clone entry) AHYNTEILKSIDNEWRKTQCMPIETLVDIFQEYPDEIEYIFKPPCVSVYRCGGCCNSEGLQCVPTEESNITMQIMRIKPHQGQHIGEMSFLQHNKCECRPKKDLV	binds	binds	binds
